The values that follow come from paper PMC13071878 (2026).

Bounds are passed on as bounds.

For this experiment, the target named is human angiotensin-converting enzyme 2, extracellular catalytic domain, produced in mammalian cells … (human, UniProt Q9BYF1 19-615). Kind of experiment: FACS.
Sequence of human angiotensin-converting enzyme 2, extracellular catalytic domain, produced in mammalian cells … (Q9BYF1 19-615): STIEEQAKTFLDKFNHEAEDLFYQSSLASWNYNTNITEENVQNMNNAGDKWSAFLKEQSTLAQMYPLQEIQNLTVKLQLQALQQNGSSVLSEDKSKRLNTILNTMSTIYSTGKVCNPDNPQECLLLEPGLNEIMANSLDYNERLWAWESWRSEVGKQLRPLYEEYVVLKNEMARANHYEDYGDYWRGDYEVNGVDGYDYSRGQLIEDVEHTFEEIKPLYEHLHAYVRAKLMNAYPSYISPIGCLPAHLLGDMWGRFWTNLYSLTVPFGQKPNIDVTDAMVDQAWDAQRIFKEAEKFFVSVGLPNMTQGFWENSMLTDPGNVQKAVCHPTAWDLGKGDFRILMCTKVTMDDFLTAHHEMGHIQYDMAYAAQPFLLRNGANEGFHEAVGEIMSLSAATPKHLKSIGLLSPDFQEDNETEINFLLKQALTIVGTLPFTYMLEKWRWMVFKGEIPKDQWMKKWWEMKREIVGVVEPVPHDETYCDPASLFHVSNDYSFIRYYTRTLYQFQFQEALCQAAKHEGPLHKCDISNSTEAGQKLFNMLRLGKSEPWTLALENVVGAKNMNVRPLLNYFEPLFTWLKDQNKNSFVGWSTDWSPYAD

ACEPLGYALFLCSG [GR1.9 (N8A), yeast-displayed alanine mutant of GR1.4] yielded a Kd greater than 1000 nM.
